± gives the standard deviation of the averaged measurements.
Assay: total protein half-life in vivo (active degradation + dilution); higher = more stable protein
[1] = E. coli NCM3722 delta-clpP delta-lon delta-hslV, growth: N-lim chemostat, doubling time 6 h
[2] = E. coli NCM3722 delta-clpP, growth: N-lim chemostat, doubling time 6 h
[3] = E. coli NCM3722 delta-smpB, growth: N-lim chemostat, doubling time 6 h
[4] = wild type E. coli NCM3722, growth: C-lim chemostat, doubling time 6 h
[5] = wild type E. coli NCM3722, growth: N-lim chemostat, doubling time 6 h
[6] = wild type E. coli NCM3722, growth: N-lim chemostat, doubling time 12 h
[7] = wild type E. coli NCM3722, growth: P-lim chemostat, doubling time 6 h
[8] = wild type E. coli NCM3722, growth: P-lim chemostat, doubling time 12 h
[9] = E. coli NCM3722 delta-hslV, growth: N-lim chemostat, doubling time 6 h
[10] = E. coli NCM3722 delta-lon, growth: N-lim chemostat, doubling time 6 h
[11] = wild type E. coli NCM3722, growth: C-lim chemostat, doubling time 3 h
[12] = wild type E. coli NCM3722, growth: C-lim chemostat, doubling time 12 h

Sequence	total protein half-life in vivo [1] [h]	total protein half-life in vivo [2] [h]	total protein half-life in vivo [3] [h]	total protein half-life in vivo [4] [h]	total protein half-life in vivo [5] [h]	total protein half-life in vivo [6] [h]	total protein half-life in vivo [7] [h]	total protein half-life in vivo [8] [h]	total protein half-life in vivo [9] [h]	total protein half-life in vivo [10] [h]	total protein half-life in vivo [11] [h]	total protein half-life in vivo [12] [h]
MLYIFRLIITVIYSILVCVFGSIYCLFSPRNPKHVATFGHMFGRLAPLFGLKVECRKPTDAESYGNAIYIANHQNNYDMVTASNIVQPPTVTVGKKSLLWIPFFGQLYWLTGNLLIDRNNRTKAHGTIAEVVNHFKKRRISIWMFPEGTRSRGRGLLPFKTGAFHAAIAAGVPIIPVCVSTTSNKINLNRLHNGLVIVEMLPPIDVSQYGKDQVRELAAHCRSIMEQKIAELDKEVAEREAAGKV	5.89	6.07 ± 0.43	4.95	6.42	5.93 ± 0.29	12.2 ± 1.3	6.42 ± 1.2	11.8 ± 0.39				
MLQNIRIVLVETSHTGNMGSVARAMKTMGLTNLWLVNPLVKPDSQAIALAAGASDVIGNAHIVDTLDEALAGCSLVVGTSARSRTLPWPMLDPRECGLKSVAEAANTPVALVFGRERVGLTNEELQKCHYHVAIAANPEYSSLNLAMAVQVIAYEVRMAWLATQENGEQVEHEETPYPLVDDLERFYGHLEQTLLATGFIRENHPGQVMNKLRRLFTRARPESQELNILRGILASIEQQNKGNKAE [P0AE01]	4.67 ± 0.57	4.013 ± 0.028	4.43 ± 0.4	5.41 ± 0.56	4.34 ± 0.23	7.52 ± 0.47	5.22 ± 0.042	10.6 ± 0.77	4.18 ± 0.18	5.15 ± 0.92	2.8 ± 0.32	9.64 ± 0.46
MRTVLNILNFVLGGFATTLGWLLATLVSIVLIFTLPLTRSCWEITKLSLVPYGNEAIHVDELNPAGKNVLLNTGGTVLNIFWLIFFGWWLCLMHIATGIAQCISIIGIPVGIANFKIAAIALWPVGRRVVSVETAQAAREANARRRFE [P0AB12]	6.35 ± 0.66	6.3 ± 0.72	6.1 ± 0.31	6.33 ± 0.089	6.72 ± 1.3	12.3 ± 3.2	5.98 ± 0.26	12 ± 0.12	5.92 ± 0.069	5.93 ± 0.27	2.89 ± 0.29	12.5 ± 1
MERCGWVSQDPLYIAYHDNEWGVPETDSKKLFEMICLEGQQAGLSWITVLKKRENYRACFHQFDPVKVAAMQEEDVERLVQDAGIIRHRGKIQAIIGNARAYLQMEQNGEPFVDFVWSFVNHQPQVTQATTLSEIPTSTSASDALSKALKKRGFKFVGTTICYSFMQACGLVNDHVVGCCCYPGNKP	5.26 ± 0.55	2.52 ± 0.12	1.72 ± 0.98	1.68	2.53 ± 0.58	3.37			2.48 ± 0.17	4.36 ± 0.28		3.77 ± 2
MIIGNIHNLQPWLPQELRQAIEHIKAHVTAETPKGKHDIEGNRLFYLISEDMTEPYEARRAEYHARYLDIQIVLKGQEGMTFSTQPAGAPDTDWLADKDIAFLPEGVDEKTVILNEGDFVVFYPGEVHKPLCAVGAPAQVRKAVVKMLMA [P0AF96]	4.25 ± 0.25	4.23 ± 2.1	3.75 ± 0.1		3.18 ± 0.1	5.175 ± 0.0007	4.55 ± 0.89	10.1 ± 0.29	3.43			8.12 ± 0.22
MANPTVIKLQDGNVMPQLGLGVWQASNEEVITAIQKALEVGYRSIDTAAAYKNEEGVGKALKNASVNREELFITTKLWNDDHKRPREALLDSLKKLQLDYIDLYLMHWPVPAIDHYVEAWKGMIELQKEGLIKSIGVCNFQIHHLQRLIDETGVTPVINQIELHPLMQQRQLHAWNATHKIQTESWSPLAQGGKGVFDQKVIRDLADKYGKTPAQIVIRWHLDSGLVVIPKSVTPSRIAENFDVWDFRLDKDELGEIAKLDQGKRLGPDPDQFGG	5.16 ± 0.27	5.3 ± 0.9	5.17 ± 0.29	6.23 ± 0.55	4.8 ± 0.42	8.91 ± 0.27	5.85 ± 0.2	13.3 ± 2.8	5.36 ± 0.068	5.7 ± 0.23	3.7 ± 0.23	11.8 ± 1.7
MTEAQRHQILLEMLAQLGFVTVEKVVERLGISPATARRDINKLDESGKLKKVRNGAEAITQQRPRWTPMNLHQAQNHDEKVRIAKAASQLVNPGESVVINCGSTAFLLGREMCGKPVQIITNYLPLANYLIDQEHDSVIIMGGQYNKSQSITLSPQGSENSLYAGHWMFTSGKGLTAEGLYKTDMLTAMAEQKMLSVVGKLVVLVDSSKIGERAGMLFSRADQIDMLITGKNANPEILQQLEAQGVSILRV [P0A9W0]	5.74 ± 0.06	5.84 ± 0.28	5.95 ± 0.36	6 ± 0.48	5.68 ± 0.2	10.9 ± 0.72	6.75 ± 1.5	13.3 ± 0.25	6.01 ± 0.41	5.66 ± 0.8	3.08 ± 0.11	10.6 ± 1.7
